Source: the supplement of paper PMC9170038

Test system: MS2 coat protein
Test: apparent KD of MS2 coat protein; designed switch direction (-1 OFF switch, 1 ON switch): 1; higher = weaker reporter binding
In short: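 SNAP-549-labelled MS2 coat protein was titrated, doubling from 0.7 or 1.5 nM to 3 µM, over designed RNA switches transcribed on Illumina chips by stalled E. coli RNA polymerase. Runs were done without input, with 200 uM small-molecule ligand, or with an oligonucleotide input. Apparent KD is the per-design median over clusters of curve-fitted normalised fluorescence.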

[1] = Eterna round: R95, input ligand: FMN 200 uM
[2] = Eterna round: R95, input ligand: microRNA oligo, concentration not stated
[3] = Eterna round: R95, input ligand: none
[4] = input ligand: microRNA oligo, concentration not stated

Row | Sequence | apparent KD of MS2 coat protein [1] [nM] | apparent KD of MS2 coat protein [2] [nM] | apparent KD of MS2 coat protein [3] [nM] | apparent KD of MS2 coat protein (input ligand: FMN 200 uM) [nM] | apparent KD of MS2 coat protein [4] [nM] | apparent KD of MS2 coat protein (input ligand: none) [nM]
1 | GCGGCGGCACGGCAGGAUAUGAUAUAACCUACAUGAGGAUCACCCAUGUCGGCGGGUUGCAAAAUUCAGAAGGGCCCUGUAGGCC [Inberere] (puzzle: Same State 2) | 21.8 | 34.4 | 37.2 | – | – | –
2 | GCUACCAAAGAAGCCAACAUGAGGAUCACCCAUGUAUGUUGGUAGGAUAUCGUUUGCAAAGCGAACGAGAAGGGCUAAGGUAGC [Mat - Same State NG 3 - JL Mod - D85] (Eterna round: R96, puzzle: Same State NG 3) | – | – | – | 151 | 88.1 | 101
3 | GCUAGAAAUAAAGCCAACAUGAGGAUCACCCAUGUAUGUUGGCAGGAUAUCGUAUGCAAAGCAUACGAGAAGGGCUAAACUAGC [Mat - Same State NG 3 - JL Mod - D6] (Eterna round: R96, puzzle: Same State NG 3) | – | – | – | 129 | 149 | 201
4 | GCUAGAAAUAAAGCCAACAUGAGGAUCACCCAUGUAUGUUGGUAGGAUAUCGUUUGCAAAGCAAACGAGAAGGGCCAAACUAGC [Mat - Same State NG 3 - JL Mod - D20] (Eterna round: R96, puzzle: Same State NG 3) | – | – | – | 86.5 | 104 | 137
5 | GCUAGAAUUAAAGCCAACAUGAGGAUCACCCAUGUAUGUUGGCAGGAUAUCGUUUGCUUUGCAAACGAGAAGGGCCAAACUAGC [JL SSNG3 1.01] (Eterna round: R96, puzzle: Same State NG 3) | – | – | – | 20.6 | 76.1 | 120
6 | GCUAGAAUUAACGCCUACAUGAGGAUCACCCAUGUAUGUAGGCAGGAUAUCGUUUGCUUUGCAAACGAGAAGGGCCUUACUAGC [JL SSNG3 1.11] (Eterna round: R96, puzzle: Same State NG 3) | – | – | – | 22.3 | 53.3 | 42
7 | GCUAGGAAAUAAGCCAACAUGAGGAUCACCCAUGUAUGUUGGUAGGAUAUCGUAUGCAAAGCAUACGAGAAGGGCUAACCUAGC [Mat - Same State NG 3 - JL Mod - D71] (Eterna round: R96, puzzle: Same State NG 3) | – | – | – | 69.5 | 62.8 | 76
8 | GCUCGAAUCAAAACCAACAUGAGGAUCACCCAUGUAUGUUGGUAGGAUAUCGUUUGCUUUGCAAACGAGAAGGGCCAAACGAGC [SameState NG3 #3] (Eterna round: R96, puzzle: Same State NG 3) | – | – | – | 69.2 | 121 | 127
9 | GCUCGACGUAUUGUCUACAUGAGGAUCACCCAUGUAGGUGCGGAGGAUAUUUACGUGUCUCAUGUAGAGAAGGUCGUGUCGAGC [SameState NG3 #95] (Eterna round: R96, puzzle: Same State NG 3) | – | – | – | 912 | 47.4 | 46.8
10 | GCUCGAUGAGCGAUUUACAUGAGGAUCACCCAUGUACGUGGGCAGGAUAUUUACGUGCUUUGUGUAGAGAAGGGCCCAUCGAGC [SameState NG3 #72] (Eterna round: R96, puzzle: Same State NG 3) | – | – | – | 107 | 309 | 546
11 | GCUCGAUGAGCGUUUUACAUGAGGAUCACCCAUGUUCGUGGGCAGGAUAUUUACGUGCGGAGUGUAGAGAAGGGCCCAUCGAGC [SameState NG3 #68] (Eterna round: R96, puzzle: Same State NG 3) | – | – | – | 71.3 | 391 | 674
12 | GCUCGAUGAGCUGUCUACAUGAGGAUCACCCAUGUAGAUGGGCAGGAUAUUUACGUGCUUUAUGUAGAGAAGGGCCCAUCGAGC [SameState NG3 #78] (Eterna round: R96, puzzle: Same State NG 3) | – | – | – | 15.5 | 123 | 169
13 | GCUCGAUGAUAGGCCUACAUGAGGAUCACCCAUGUAAGUGGGCAGGAUAUCUACAUGCAGAAUGUAGAGAAGGGCCCGUCGAGC [SameState NG3 #55] (Eterna round: R96, puzzle: Same State NG 3) | – | – | – | 20.5 | 66 | 83.9
14 | GCUCGGAUGAUGACCCACAUGAGGAUCACCCAUGUGCGUGGGCAGGAUAUCUAGAUUAAGGAUGUAGAGAAGGGUCUACCGAGC [SameState NG3 #31] (Eterna round: R96, puzzle: Same State NG 3) | – | – | – | 964 | 318 | 407
15 | GCUCGGAUGAUGGCCCACAUGAGGAUCACCCAUGUGCGUGGGCAGGAUAUCUAGAUUAAGGAUGUAGAGAAGGGUCUACCGAGC [SameState NG3 #32] (Eterna round: R96, puzzle: Same State NG 3) | – | – | – | 194 | 67.9 | 128
16 | GCUGGAAACCACAUGAGGAUCACCCAUGUUCCGGAAACGGCGCAGGAUAUCUGUCCGAAAAGGUCAGAGAAGGGUGGAACCAGC [Fiskers NG3ss - 81] (Eterna round: R96, puzzle: Same State NG 3) | – | – | – | 232 | 136 | 164
17 | GCUUCACAUGAGGAUCACCCAUGUUUUCGGAGUCGAGGAUAUGGUCACUGUAAACAGUGGCCAGAAGGCGAGGAGC [SS1 - Son of Teenbexe v8] (puzzle: Same State 1) | – | 17 | – | – | – | –
18 | GGAAACUUGAGAGGAUAUGUAGAGGAUCACCCUACAGAAGGCUCUUUUGAGAGGAUAUGUAGAGGAUCACCCUACAGAAGGCUC [pwkr ssNG DX.14] (Eterna round: R96, puzzle: Same State NG 1) | – | – | – | 30.7 | 26.5 | 87
19 | GGAAUAUGAUGUUACAUGAGGAUCACCCAUGUAGUAAUAACUAAGGAUAUUUGAAAGGGAGGAGAAGAGAAGGUAGGAUCAUAA [AK SSNG3-V2-11] (Eterna round: R96, puzzle: Same State NG 3) | – | – | – | 61 | 41.3 | 63.8
20 | GGAAUAUGAUGUUACAUGAGGAUCACCCAUGUAGUGACAACUAAGGAUAUCUGAAAGGAAGGAGAGGAGAAGGUAGGAUCAUAA [AK SSNG3-V2-14] (Eterna round: R96, puzzle: Same State NG 3) | – | – | – | 20 | 24.6 | 33.3
21 | GGAAUAUUUACAGGAUAUGAGUUGUAAAGUCGAUCAGAAGGGUAGGUGUUUUGCACGGUGUGUUACAUGAGGAUCACCCAUGUU [SameState NG1 #22] (Eterna round: R96, puzzle: Same State NG 1) | – | – | – | 74.1 | 66.2 | 123
22 | GGACGUCAUCUCAAUGAUUAAACAUGAGGAUCACCCAUGUCACAGGAUAUGGAUCCUAAUUGGAUCCAGAAGGGUGUGACGUCC [Fiskers NG3ss - 44] (Eterna round: R96, puzzle: Same State NG 3) | – | – | – | 121 | 98.2 | 148
23 | GGACGUCGAUAAUAUAAUCUCACAUGAGGAUCACCCAUGUCACAGGAUAUGGAUCCUAAUUGGAUCCAGAAGGGUGCGACGUCC [Fiskers NG3ss - 35] (Eterna round: R96, puzzle: Same State NG 3) | – | – | – | 73.3 | 235 | 373
24 | GGAGCCAAGGCAGGAUAUUCAUAUUAAAACAUGAGGAUCACCCAUGUAAAGGCCAGAAGGCCUUGGGAGAAGGGCCAUGGCUCG [Xeonanis - 13 mod1] (Eterna round: R96, puzzle: Same State NG 2) | – | – | – | 19.9 | 37.6 | 49
25 | GGAGCCAAGGCAGGAUAUUCAUUAUAAAUUACAUGAGGAUCACCCAUGUUGGCCAGAAGGCCAUGGGAGAAGGGCCAUGGCUCG [Xeonanis - 13 mod25] (Eterna round: R96, puzzle: Same State NG 2) | – | – | – | 39.7 | 280 | 322
26 | GGAGCCGGCACCGAGGAUAUUCAUAUUAAAACAUGAGGAUCACCCAUGUAGGCCAGAAGGCCUUGGGAGAAGGCGGAUCGGCUCG [Xeonanis] (Eterna round: R96, puzzle: Same State 2) | – | – | – | 33.2 | 305 | 544
27 | GGAGCCGGCACCGAGGAUAUUCAUAUUAAAACAUGAGGAUCACCCAUGUAGGUCAAAAGACCUUGGGAGAAGGCGGAUCGGCUCG [Xeonanis - 31] (puzzle: Same State 2) | 32.1 | 802 | 481 | – | – | –
28 | GGAGCCGGCCUAGGAUAUUUCAUAAAAUUACAUGAGGAUCACCCAUGUAGGCCAGAAGGCCUUGGGAAGAAGGAGGUCGGCUCC [Loop Effect - U28,U29] (Eterna round: R96, puzzle: Same State NG 2) | – | – | – | 12.9 | 17.5 | 28.2
29 | GGAGCCGGUACUGAGGAUAUUCAUAUUAAAACAUGAGGAUCACCCAUGUAGGCCAGAAGGCCUUGGGAGAAGGCAGAUCGGCUCC [Biceusra] (Eterna round: R96, puzzle: Same State 2) | – | – | – | 19 | 132 | 233
30 | GGAGGAUUCGCAGGAUAUUCCUGAACACUGUAGGAAGAAGGGUGACGUAUCAGCACCAAGUGACAUGAGGAUCACCCAUGUUAA [Eternabot solution 24] (Eterna round: R96, puzzle: Same State NG 1) | – | – | – | 137 | 93.7 | 114
